From US20020004226A1

Target: soluble LDL receptor from the supernatant of IFN-gamma-treated human WISH cells (antiviral factor) (human) (UniProt P01130)
Experiment: immunoaffinity chromatography on agarose-coupled C7; antiviral activity recovered in the pH 11 eluate (el.2 and el.3) relative to the load

Chain of UniProt P01130 (P01130 25-313 limits assumed): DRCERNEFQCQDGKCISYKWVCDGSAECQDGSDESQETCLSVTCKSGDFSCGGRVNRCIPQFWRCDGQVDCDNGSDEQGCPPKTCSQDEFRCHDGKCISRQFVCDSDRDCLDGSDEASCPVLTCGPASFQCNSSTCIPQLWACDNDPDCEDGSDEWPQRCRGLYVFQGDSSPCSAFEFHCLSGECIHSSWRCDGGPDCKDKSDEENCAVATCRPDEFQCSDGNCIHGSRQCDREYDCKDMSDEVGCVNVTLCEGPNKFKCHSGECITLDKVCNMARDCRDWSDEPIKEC

recovery: 32%
Substance: monoclonal antibody C7 (hybridoma C7, ATCC CRL 1691)
